Residue numbers refer to the chain shown, from its start. Names and notes keep the numbering of the source.
Key:
[1] = substrate: CCCCCCCCCCCCC/C=C/[C@@H](O)[C@@H](N)CO; experiment: (§1) Ratio of Kcat to Km of Activity of Rhodococcus sp. M777 Endoglycoceramidase 2 A153T D314Y R177H mutant
[2] = substrate: CC(=O)N[C@H]1[C@H](O[C@@H]2[C@H](O[C@]3(C(=O)O)C[C@H](O)[C@@H](NC(C)=O)[C@H]([C@@H](O)[C@@H](O)CO)O3)[C@@H](O)[C@H](O[C@H]3[C@H](O)[C@@H](O)[C@@H](F)O[C@@H]3CO)O[C@@H]2CO)O[C@H](CO)[C@H](O)[C@@H]1O[C@@H]1O[C@H](CO)[C@H](O)[C@H](O)[C@H]1O; experiment: as §1
[3] = substrate: CCCCCCCCCCCCC/C=C/[C@@H](O)[C@@H](N)CO; experiment: (§2) Activity of Rhodococcus sp. M777 Endoglycoceramidase 2 A153T D314Y R177H mutant
[4] = substrate: CC(=O)N[C@H]1[C@H](O[C@@H]2[C@H](O[C@]3(C(=O)O)C[C@H](O)[C@@H](NC(C)=O)[C@H]([C@@H](O)[C@@H](O)CO)O3)[C@@H](O)[C@H](O[C@H]3[C@H](O)[C@@H](O)[C@@H](F)O[C@@H]3CO)O[C@@H]2CO)O[C@H](CO)[C@H](O)[C@@H]1O[C@@H]1O[C@H](CO)[C@H](O)[C@H](O)[C@H]1O; experiment: as §2
[5] = substrate: CCCCCCCCCCCCC/C=C/[C@@H](O)[C@@H](N)CO; experiment: (§3) Activity of Rhodococcus sp. M777 Endoglycoceramidase 2 I276F mutant
[6] = substrate: CC(=O)N[C@H]1[C@H](O[C@@H]2[C@H](O[C@]3(C(=O)O)C[C@H](O)[C@@H](NC(C)=O)[C@H]([C@@H](O)[C@@H](O)CO)O3)[C@@H](O)[C@H](O[C@H]3[C@H](O)[C@@H](O)[C@@H](F)O[C@@H]3CO)O[C@@H]2CO)O[C@H](CO)[C@H](O)[C@@H]1O[C@@H]1O[C@H](CO)[C@H](O)[C@H](O)[C@H]1O; experiment: as §3
[7] = substrate: CCCCCCCCCCCCC/C=C/[C@@H](O)[C@@H](N)CO; experiment: (§4) Ratio of Kcat to Km of Activity of Rhodococcus sp. M777 Endoglycoceramidase 2 I276F mutant
[8] = substrate: CC(=O)N[C@H]1[C@H](O[C@@H]2[C@H](O[C@]3(C(=O)O)C[C@H](O)[C@@H](NC(C)=O)[C@H]([C@@H](O)[C@@H](O)CO)O3)[C@@H](O)[C@H](O[C@H]3[C@H](O)[C@@H](O)[C@@H](F)O[C@@H]3CO)O[C@@H]2CO)O[C@H](CO)[C@H](O)[C@@H]1O[C@@H]1O[C@H](CO)[C@H](O)[C@H](O)[C@H]1O; experiment: as §4
[9] = substrate: CCCCCCCCCCCCC/C=C/[C@@H](O)[C@@H](N)CO; experiment: (§5) Activity of Rhodococcus sp. M777 Endoglycoceramidase 2 A153T mutant
[10] = substrate: CC(=O)N[C@H]1[C@H](O[C@@H]2[C@H](O[C@]3(C(=O)O)C[C@H](O)[C@@H](NC(C)=O)[C@H]([C@@H](O)[C@@H](O)CO)O3)[C@@H](O)[C@H](O[C@H]3[C@H](O)[C@@H](O)[C@@H](F)O[C@@H]3CO)O[C@@H]2CO)O[C@H](CO)[C@H](O)[C@@H]1O[C@@H]1O[C@H](CO)[C@H](O)[C@H](O)[C@H]1O; experiment: as §5
[11] = substrate: CCCCCCCCCCCCC/C=C/[C@@H](O)[C@@H](N)CO; experiment: (§6) Ratio of Kcat to Km of Activity of Rhodococcus sp. M777 Endoglycoceramidase 2 A153T mutant
[12] = substrate: CC(=O)N[C@H]1[C@H](O[C@@H]2[C@H](O[C@]3(C(=O)O)C[C@H](O)[C@@H](NC(C)=O)[C@H]([C@@H](O)[C@@H](O)CO)O3)[C@@H](O)[C@H](O[C@H]3[C@H](O)[C@@H](O)[C@@H](F)O[C@@H]3CO)O[C@@H]2CO)O[C@H](CO)[C@H](O)[C@@H]1O[C@@H]1O[C@H](CO)[C@H](O)[C@H](O)[C@H]1O; experiment: as §6
[13] = substrate: CCCCCCCCCCCCC/C=C/[C@@H](O)[C@@H](N)CO; experiment: (§7) Activity of Rhodococcus sp. M777 Endoglycoceramidase 2 N334S mutant
[14] = substrate: CC(=O)N[C@H]1[C@H](O[C@@H]2[C@H](O[C@]3(C(=O)O)C[C@H](O)[C@@H](NC(C)=O)[C@H]([C@@H](O)[C@@H](O)CO)O3)[C@@H](O)[C@H](O[C@H]3[C@H](O)[C@@H](O)[C@@H](F)O[C@@H]3CO)O[C@@H]2CO)O[C@H](CO)[C@H](O)[C@@H]1O[C@@H]1O[C@H](CO)[C@H](O)[C@H](O)[C@H]1O; experiment: as §7
[15] = substrate: CCCCCCCCCCCCC/C=C/[C@@H](O)[C@@H](N)CO; experiment: (§8) Ratio of Kcat to Km of Activity of Rhodococcus sp. M777 Endoglycoceramidase 2 N334S mutant
[16] = substrate: CC(=O)N[C@H]1[C@H](O[C@@H]2[C@H](O[C@]3(C(=O)O)C[C@H](O)[C@@H](NC(C)=O)[C@H]([C@@H](O)[C@@H](O)CO)O3)[C@@H](O)[C@H](O[C@H]3[C@H](O)[C@@H](O)[C@@H](F)O[C@@H]3CO)O[C@@H]2CO)O[C@H](CO)[C@H](O)[C@@H]1O[C@@H]1O[C@H](CO)[C@H](O)[C@H](O)[C@H]1O; experiment: as §8
[17] = substrate: CCCCCCCCCCCCC/C=C/[C@@H](O)[C@@H](N)CO; experiment: (§9) Activity of Rhodococcus sp. M777 Endoglycoceramidase 2 T257I T416A mutant
[18] = substrate: CC(=O)N[C@H]1[C@H](O[C@@H]2[C@H](O[C@]3(C(=O)O)C[C@H](O)[C@@H](NC(C)=O)[C@H]([C@@H](O)[C@@H](O)CO)O3)[C@@H](O)[C@H](O[C@H]3[C@H](O)[C@@H](O)[C@@H](F)O[C@@H]3CO)O[C@@H]2CO)O[C@H](CO)[C@H](O)[C@@H]1O[C@@H]1O[C@H](CO)[C@H](O)[C@H](O)[C@H]1O; experiment: as §9
[19] = substrate: CCCCCCCCCCCCC/C=C/[C@@H](O)[C@@H](N)CO; experiment: (§10) Ratio of Kcat to Km of Activity of Rhodococcus sp. M777 Endoglycoceramidase 2 T257I T416A mutant
[20] = substrate: CC(=O)N[C@H]1[C@H](O[C@@H]2[C@H](O[C@]3(C(=O)O)C[C@H](O)[C@@H](NC(C)=O)[C@H]([C@@H](O)[C@@H](O)CO)O3)[C@@H](O)[C@H](O[C@H]3[C@H](O)[C@@H](O)[C@@H](F)O[C@@H]3CO)O[C@@H]2CO)O[C@H](CO)[C@H](O)[C@@H]1O[C@@H]1O[C@H](CO)[C@H](O)[C@H](O)[C@H]1O; experiment: as §10

B1: Endoglycoceramidase II (Rhodococcus sp), A0ACD6B832 A153T,D314Y,R177H (protein)
chain: MRRTRLVSLIVTGSLVFGGGVAAAQSSLAASGSGSGSGTALTPSYLKDDDGRSLILRGFNTASSAKSAPDGMPQFTEADLAREYADMGTNFVRFLISWRSVEPAPGVYDQQYLDRVEDRVGWYAERGYKVMLDMHQDVYSGAITPEGNSGNGTGAIGNGAPAWATYMDGLPVEPQPHWELYYIQPGVMRAFDNFWNTTGKHPELVEHYAKAWRAVADRFADNDAVVAYDLMNEPFGGSLQGPAFEAGPLAAMYQRTTDAIRQVDQDTWVCVAPQAIGVNQGLPSGLTKIDDPRAGQQRIAYCPHLYPLPLDIGYGHEGLARTLTDVTIDAWRANTAHTARVLGDVPIILGEFGLDTTLPGARDYIERVYGTAREMGAGVSYWSSDPGPWGPYLPDGTQTLLVDTLNKPYPRAVAGTPTEWSSTSDRLQLTIEPDAAITAPTEIYLPEAGFPGDVHVEGADVVGWDRQSRLLTVRTPADSGNVTVTVTPAA
[1]
  kcat/Km: 490 M⁻¹ s⁻¹
[2]
  kcat/Km: 350 M⁻¹ s⁻¹
[3]
  Km: 490 µM
  kcat: 0.24 s⁻¹
[4]
  Km: 800 µM
  kcat: 0.28 s⁻¹

B2: Endoglycoceramidase II (Rhodococcus sp), A0ACD6B832 I276F (protein)
chain: B1 chain with T153A, H177R, I276F, Y314D
[5]
  Km: 130 µM
  kcat: 0.11 s⁻¹
[6]
  Km: 1300 µM
  kcat: 0.11 s⁻¹
[7]
  kcat/Km: 846 M⁻¹ s⁻¹
[8]
  kcat/Km: 86 M⁻¹ s⁻¹

B3: Endoglycoceramidase II (Rhodococcus sp), A0ACD6B832 A153T (protein)
chain: B1 chain with H177R, Y314D
[9]
  Km: 460 µM
  kcat: 0.2 s⁻¹
[10]
  Km: 420 µM
  kcat: 0.17 s⁻¹
[11]
  kcat/Km: 435 M⁻¹ s⁻¹
[12]
  kcat/Km: 405 M⁻¹ s⁻¹

B4: Endoglycoceramidase II (Rhodococcus sp), A0ACD6B832 N334S (protein)
chain: B1 chain with T153A, H177R, Y314D, N334S
[13]
  Km: 680 µM
  kcat: 0.19 s⁻¹
[14]
  Km: 700 µM
  kcat: 0.13 s⁻¹
[15]
  kcat/Km: 279 M⁻¹ s⁻¹
[16]
  kcat/Km: 186 M⁻¹ s⁻¹

B5: Endoglycoceramidase II (Rhodococcus sp), A0ACD6B832 T257I,T416A (protein)
chain: B1 chain with T153A, H177R, T257I, Y314D, T416A
[17]
  Km: 870 µM
  kcat: 0.18 s⁻¹
[18]
  Km: 370 µM
  kcat: 0.11 s⁻¹
[19]
  kcat/Km: 206 M⁻¹ s⁻¹
[20]
  kcat/Km: 297 M⁻¹ s⁻¹

— ChEMBL document CHEMBL1212722, “Designer enzymes for glycosphingolipid synthesis by directed evolution” (Nat Chem Biol, 2009)
